This passage reports O.D. results from EP3988566A1.

For the test, the target named is soluble polymeric amyloid beta (UniProt P05067). The experiment in a line: ELISA, plate coated with amyloid oligomer (55 µg/ml), anti-mouse IgG-AP detection.
Sequence of soluble polymeric amyloid beta (P05067 672-713): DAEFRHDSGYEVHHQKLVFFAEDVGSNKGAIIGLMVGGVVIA

B1: mouse monoclonal antibody ACI-01-Ab7C2 (antibody, mouse IgG2b, V domains shown)
VH: EVQLVESGGGLVQPGGSLKLSCAASGFTFSSYGMSWVRQTPDKRLELVASINSNGGSTYYPDSVKGRFTISRDNAKNTLYLQMSSLKSEDTAMYYCASGDYWGQGSTLTVSS
VL: DVVMTQTPLSLPVSLGDQASISCRSSQSLVYSNGDTYLHWYLQKPGQSPKLLIYKVSNRFSGVPDRFSGSGSGTDFTLKISRVEAEDLGVYFCSQSTHVPWTFGGGTKLEIK
For B1, the O.D. at 0.078 ug/ml antibody is 0.652 O.D, the O.D. at 0.156 ug/ml antibody amounted to 1.04 O.D, the O.D. at 0.312 ug/ml antibody was 1.72 O.D and the O.D. at 0.625 ug/ml antibody is 2.81 O.D.
